The target of the experiment is 80S ribosomes from yeast cells expressing wild-type rpL10 (S. cerevisiae) (UniProt P41805). Nature of the experiment: steady-state binding of [32P]-Sdo1p; ribosomes held on cysteine-charged sulfolink resin, unbound Sdo1p in the flow-through counted; 2 pmol ribosomes with 0.25–32 pmol Sdo1p and 100 µg polyU in 50 mM Tris-(OAc)2 pH 7.5, 50 mM NH4(OAc)2, 10 mM Mg(OAc)2, 2 mM DTT, 50 µl, 30°C 20 min.

Usually stoichiometry N stands for a count of units in the complex or per binding partner.

Sequence of UniProt P41805 (P41805 whole entry, looked up): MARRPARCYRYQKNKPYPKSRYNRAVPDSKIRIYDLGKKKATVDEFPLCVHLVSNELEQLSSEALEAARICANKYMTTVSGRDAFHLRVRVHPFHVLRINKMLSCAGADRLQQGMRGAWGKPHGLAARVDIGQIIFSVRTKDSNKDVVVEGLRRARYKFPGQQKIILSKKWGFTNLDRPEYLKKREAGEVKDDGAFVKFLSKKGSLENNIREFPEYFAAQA

B1: Sdo1p with a C-terminal 6× histidine tag and the phosphorylatable kemptide (natural protein)
chain: MPINQPSGQIKLTNVSLVRLKKARKRFEVACYQNKVQDYRKGIEKDLDEVLQIHQVFMNVSKGLVANKEDLQKCFGTTNVDDVIEEIMHKGEIQLSEKERQLMLNKVNNEMLTIVSAKCINPVSKKRYPPTMIHKALQELKFSPVINKPAKLQALEAIKLLVSKQIIPIVRAKMKVKVAISEPSRQPELIEKISKLIASSPGESTKPELDPWTCTGLIDPVNYRDLMTLCDKKGTVQVLDMAVIDNTTHN
modifications: 32P-phosphate on the kemptide (labelled with PKA and [32P]-γ-ATP, 40–60% label incorporation)
For the molecule B1, the stoichiometry N stood at 1.

The values above are taken from article PMC3919601.
